The values that follow come from patent publication US20110256132A1 (published 2011).

For this experiment, the target named is T1, mature myostatin (recombinant, dimeric) (mouse polyprotein used for in-house …, UniProt O08689 268-376).
T1 construct: also called GDF-8; recombinant myostatin
T1 sequence: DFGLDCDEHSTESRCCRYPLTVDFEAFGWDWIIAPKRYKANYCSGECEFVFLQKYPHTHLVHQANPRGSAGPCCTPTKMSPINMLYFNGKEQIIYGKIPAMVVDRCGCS
Kind of experiment: ELISA: inhibition of 2 nM biotinylated myostatin binding to plate-coated ActRIIb, mean IC50 (= 0.88 nM by paragraph 327). As for the experimental part:
Recombinant soluble ActRIIb (R&D Systems 339-RBB) was coated in wells of an ELISA plate at 1 μg/ml in carbonate buffer overnight at 4° C. Plates were blocked (see Block solution above at 2.3) and washed following standard ELISA protocols. In parallel, 2 nM biotinylated myostatin (in-house, as described in 1.1, biotinylated material) was pre-incubated with an antibody dilution series consisting of 10B3, 10B3C, and a negative control (IgG1 isotype control) for 2 hours at 37° C. The biotinylated myostatin:antibody reactions were then added to the ActRIIb coated plate for 1 hour at 37° C. Standard wash procedures were followed prior to addition of 1:1000 diluted streptavidin-HRP conjugate (Dako P0397) and a further 37° C. incubation for 1 hour. Plates were again washed and assayed at absorbance 490 nm following OPD substrate (Sigma) and acid stop solution treatment Inhibition curves and IC50 values for the inhibition of myostatin activity are shown in FIG. 5 and Table 8 respectively.

B1: mouse monoclonal antibody 10B3 (antibody, V domains shown)
VH: EVQLQQSGPELVKPGASVKISCKASGYSFTGYFMHWVKQSHGNILDWIGNIYPYNGVSNYNQRFKAKATLTVDKSSSTAYMELRSLTSEDSAVYYCARRYYYGTGPADWYFDVWGTGTTVTVSS
VL: DIKMTQSPSSMYASLRERVTITCKASQDINSYLSWFQQKPGKSPKTLIYRANRLVDGVPSRFSGSGSGQDYSLTISSLEYEDMGIYYCLQCDEFPLTFGAGTKLELK
notes: Mouse IgG2a/kappa from hybridoma; also called 10B3 mouse parental; 10B3 parental
As to B1, the IC50 is 0.132 µg/mL.
